Reference: the DeepSol protein solubility set

test: soluble on expression in E. coli; label from the status in PepcDB or PDB records

Sequence	soluble on expression in E. coli
MGSDKIHHHHHHMNLATSERAQLATLLLEKGPNFPTLCGDWNTQELAAHLLIRESRPWIAAGMFLPGGSRIVADAMRKITQQPFEHVVAQWMKGPKWGYLGRYLDSVANRIEHFVHHEDVRRGETTVGQWQNLDLLPCNAKPRVLSERHSGELYDAMRWVAPLLLRRSACPVVIEPIGFPRLVVADAGVVSTRGDCVVHVRGDIGEVVLWILGRNQVDLFVDGPTHLLKKSSL	not soluble
MGSDKIHHHHHHMSHNIKYRQLKAFRILAESGSFKHAADSLAVTQPSMSIMIRELESDLGVALIDRATRSAELTDAGRDFYQQIKGSLDQLEKAYSYANAAGKAEHGRVRIATLTSLAAEAVTTAIARMHAERPGIQIELMERTYFLALRRREVDLGVGILHEAHADLDFQYLFSDQLVVVTPKGHPLARQRQPLKHLGKYDVVVVSPGPSLEALQELDADCAPPVQVEQPSTAITMVRKGLGVTVTSSSATTGLDMRGLAAVPIPGTTRDVGVITLAQARLSPVASAFLRCLRHVHPAG	not soluble
MKYNATKAISIAPPTIPTVNPTINEVFSFELLELELEEEEDKLLSCESDCFAQYVDGHLSHVNEVITQYSPEAQTGHDAVESQTTHPSLPLVAEVEEVAVLDKDELAEALEELDIFCLIFRKRT	soluble
MSFQLHPDTTLDVVHLYVSNVKKSLEFYTEVLSMKVLKEEEAVVTFGNENDEPLLIIEEKKEAFPKQRGRTGLYHYAILLPSRQDLANVLRHLVEMVYPLHGGADHYFSEALYLADPDGNGIEIYHDRQKEVWRDENGELPFVSNPLAGEELLQQGSTWNGFPAGTVMGHIHFHVADLEEAKCFYVDGLGFEVTIPARNGALFVSAGGYHHHIGLNTWQGEGVPPQMPGSVGLKYFTIVLADEKQKEQVCESLKNIGKIATYKDGILQVEDPFGHCIHFKIKGEA	not soluble
MSERLEVSIEGEDDFPFDEDNIQELDHFDIGEDEDPEEVAQEDAGVWQERVPLTRQKRKQVLRKPGRKRTGEIIHIPKRQPPRAVRVKSYQQYDAFDELVEQDLDDSDPEVMDDDGEPSTSKTWRIFVRKDGSGMHFDWPIFMDSAVSLKDVVNFISTDASEIPKSLICTSIPQEFTNTGTFIIHLEEGLLKEEICNDGLGTWNSAQMFVRKYVLGVGRARPLMTQKNDHNLKHIFISGFDKDEHMIPYVVICYEWMGQPHPLTVYEDQTEKQAFEQMTWKKCSNPEDQVPILARHGCDYNSAVAILLSSEKCTNYGKSVPQFVQECISFVIDINECGGDRALFLDGNEWQRPSGSHRFFRILYPNQDHGDFDTWNIERASSNFNVTNSDIQIICRRYNGQKYSQSFGFVRKIYLLKILPLCPPEVAEQLHNRDLAVISYSYRNAPHPTFIEQPDRQKLPDGQRVGEEVELVSGDVMFDDDISPEMREMVENMERKKKINSERLMELLQRIHRIDQICKKEAWLESSAEVQQLTQIAQLLHYCQ	not soluble
MAYLERAYFGLQCFWGESAWAKLKGVVVTRVGYAGGKQPNPTYKNIKDHTEITEITFDPKVIEYSKLTNFFWKHHNPAERRKKQYQSAILYVNDDQKKVAEETLKVAKDKHGDIETYIEPLDKFYQAEDYHQKYWFRQKKILFDELSLLDTQVAEGELATKLNAYCAGFQDFHDLERLAKEYGLKDSFVNKVKDYALSGGDPRNCHA	not soluble
MGSSHHHHHHSSGLVPRGSHMNESIVISLGGSVISGDPIDADYMKSFARILEASKYRRVGIVTGGGRTARSYISVLRKLNVNENVLDEIGIYATRMNALSMASLIPGSNPTIPFTVEDAVNLMNTYRFVVMGGTEPGHTTDTVAALLCERSATRTLINVTSVDGVYDMDPHRFANAKRFDRIGYREAIALSTKSSAGAGPNVFMDITALTIAMRSRIRVIVTSRDIDNLEKILKGDRAVSTFIDDDQRS	soluble
MSLASLRVLALACLPLFAVLHADAKTLLGKVKRATGMGVGEGPSVAKKPKYTATVPGFTPPSGDQRMNEFMAVDTSGEFMRHLYIEEGRTVCASATSRNRRPTSESPHSDDVVVVEGMLRGRPETRVHAMFDGFQGRHSAMWLAQNVMNYLNDLRDVNEEEITRQFERMDGDLRAANLPGGSSALIIFVRYEKKPTEARVVGRQIVPEGAKEFTSVAEALGGPLMPVVAMNFRRDPRAAKGIYTIHVASLGNSRCVLKSGRTAIHLSTPHTASSHKERHRVQAAGGVFTTVNGELLLGGVVPMTRAFGSFDFKKGGQGKLQQDLVSAVPDVTTFFAYPGDDEGHHHHHH	not soluble
STSELDIFVGNTTLIDEDVYRLWLDGYSVTDAVALRVRSGILEQTGATAAVLQSDTMDHYRTFHMLERLLHAPPKLLHQLIFQIPPSRQALLIERYYAFDEAFVREVLGKKLSKGTKKDLDDISTKTGITLKSCRRQFDNFKRVFKVVEEMRGSLVDNIQQHFLLSDRLARDYAAIVFFANNRFETGKKKLQYLSFGDFAFCAELMIQNWTLGAVDSQMDDMDMDLDKEFLQDLKELKVLVADKDLLDLHKSLVCTALRGKLGVFSEMEANFKNLSRGLVNVAAKLTHNKDVRDLFVDLVEKFVEPCRSDHWPLSDVRFFLNQYSASVHSLDGFRHQALWDRYMGTLRGCLLRLYHD	soluble
MATAVVQRKGYDNVELSLSEDDDPVKEKKKSKGNEKKSSTESKSKESKETSKEEDLAQKKFLMTQKTQSMTEDEKEVKPKAPESQKPKKNSAEESNEKIKKEGSVKVETVASKVKPASSRVPPIASTPGKGSVDGEQKKKSTGCCIIL	soluble
MKEETFYLVREDVLPDAMRKTLEVKKLLDRKKADSVADAVQKVDLSRSAFYKYRDAVFPFYTMVKEQIITLFFHLEDRSGALSQLLQAVADSGSNVLSIHQTIPLQGRANVTLSISTSAMEEDIHTLMNKLRKFDFVEKVEILGSGA	not soluble
MSAFQPTIKRRESTKIYVGNVPIGGDAPIAVQSMTNTRTTDVEATVAQIKSLERVGADIVRVSVPTMDAAEAFKQIKQQVNVPLVADIHFDYRIALKVAEYGVDCLRINPGNIGREDRVRAVVDCARDKNIPIRIGVNAGSLEKDLQEKYGEPTPEALLESALRHVEILDRLNFDQFKVSVKASDVFLAVESYRLLAKAIKQPLHLGITEAGGARAGAVKSAVGLGMLLAEGIGDTLRVSLAADPVEEIKVGFDILKSLRIRSRGINFIACPTCSRQEFDVIGTVNALEQRLEDIITPMDVSIIGCVVNGPGEALVSDLGVTGGNKKSGYYLDGERQKERFDNEDIVNQLEAKIRAKVARQDPKNRII	not soluble
MLITSYNPSELGDTLITILRPDTATQTIETHANVTRISDADSGETLGYNFFDVSKTLGDLDANGQVHLTAEQVEQLNNLLKTNDFEPELVLDTDPKFVVGYVESAEAHPKSDHLQITKTNVGLEQPLQIVSGSPNMQANILVVVAKVGAMMPSGLIIWPGELRGVESDGMIVSGRELRLPNAPQRPGALILPADYQPVGAAFDFKRAQTLFTALEHHHHHH	not soluble
MGSDKIHHHHHHMATKHEQILQYITNLEVGEKISVRRIAKDLQVSEGTAYRAIKEAENQGLVSTIERVGTIRIEKKQKENIEKLTYAEVVNIVDGQVLGGRDGLHKTLNRFVIGAMKLDAMMRYVEPGNLLIVGNRYQVHQIALEAGAAVLITGGFDTSDEAIKLADELDLPVISTSYDTFTVATMINRAIYDQLIKKEITLVDDILIPLQDTYYMTTENVVGKWHELNEKTGHSRYPVIDENMKIQGMVAAKDVLNASRHTPIEKVMTKNPITVSERTSVAAVAHVMVWEGIELLPVIDSHRKLIGVVSRQDVLKALQMIQRQPHVGETIEDLMTNGLNESSSDQGDSYEVEITPQMTNQLGTISHGVMTSLVIESGSRVLRKYKKGDLVVENITLYFLKPVQIDSRLTIRPRVLEIGRKHGKIDVEMYHEGEIVGKALFMAQIID	not soluble
MCNLTIHNIENYENDPQLRLIPWILWENLFQHFISANELSLMTLSYKEAIHIFLPGTKNMEQVRQLLCLYYAHYNRNAKQLWSDAHKKGIKSEVICFVAAITGCSSALDTLCLLLTSDEIVKVIQAENYQAFRLAAENGHLHVLNRLCELAPTEIMAMIQAENYHAFRLAAENGHLHVLNRLCELAPTEATAMIQAENYYAFRWAAVGRGHHNVINFLLDCPVMLAYAEIHEFEYGEKYVNPFIARHVNRLKEMHDAFKLSNPDGVFDLVTKSECLQGFYMLRNLIRRNDEVLLDDIRFLLSIPGIKALAPTATIPGDANELLRLALRLGNQGACALLLSIPSVLALTKANNYYINETGGRLDLRAVALEHHHHHH	soluble
MELIQDTSRPPLEYVKGVPLIKYFAEALGPLQSFQARPDDLLINTYPKSGTTWVSQILDMIYQGGDLEKCNRAPIYVRVPFLEVNDPGEPSGLETLKDTPPPRLIKSHLPLALLPQTLLDQKVKVVYVARNPKDVAVSYYHFHRMEKAHPEPGTWDSFLEKFMAGEVSYGSWYQHVQEWWELSRTHPVLYLFYEDMKENPKREIQKILEFVGRSLPEETMDFMVQHTSFKEMKKNPMTNYTTVPQELMDHSISPFMRKGMAGDWKTTFTVAQNERFDADYAEKMAGCSLSFRSEL	soluble
MQFVWEAERTKAKVNAMLCLKRQAVANPLFGKGRLKIFSDDLLFIEQIPQTADNPTDKLLQFRVDFLLFPRKANKSRKNIKNVKKLRTNSLISCNYM	not soluble
MSLEGKTIGITAIGTDHDWDLKAYQAQIAEIERLGGTAIALDAGRNDQTQVSQIQTLIAQKPDAIIEQLGNLDVLNPWLQKINDAGIPLFTVDTATPHAINNTTSNNYSIGAELALQMVADLGGKGNVLVFNGFYSVPVCKIRYDQMKYVLEAFPDVKIIEPELRDVIPNTIQSAYSNVTDMLTKYPNEGDVGAIWACWDVPMIGATQALQAAGRTDIRTYGVDGSPEFVEMVADPESPAGAVAAQQPSEIGKLAVQNVARHLAGQEVKPFTFAPAVLITKENAAETAADFLPKEGHHHHHH	soluble
MFENESLSFEEQTIIQAAERYVQQELANEASGHDWWHIYRVTQLAKTIAEKEQANLFLCILTALLHDIGDEKFNESEEAGLLKVQQWLEANNVSTEQTNHILSIIANMSFKGGNTGKTVTTLEGKVVQDADRLDAIGAIGIARVMAYSGNKGRLIHDPHKQPREQLTQEEYRNGEDTAIMHFYEKLLKLKEQMNTNYGRLLAEKRHQFMELYLEEFYQEWDGHRLEHHHHHH	soluble
MPRRRGSSSSSSAAGGSGGGGGFGFSSLRRELHLHNFFRTSSPSASSTSRTPPAALPPRTSAVTIPGSNHKLTSSASSYHPPRELTVSTFSAGSATAADGLGGAHLTPSLSSSVHARRESFLYRASDDLREASSLRPVSRASSIASNEHGYVILYIFL	not soluble
MGSDKIHHHHHHMRAYDVILKKRNGEKLSREEIEFMVGGYVKGEIPDYQMAAFLMAVYFRHLDEEETYYFTETMMRSGEVLDLSEIPGTKVDKHSTGGVGDKTTLVVAPLVASAGVPVAKMSGRALGHTGGTIDKLESIPGFRTELSLEEFIKNVKKYGIAIVGQTGNLVPADKKIYALRDATATVDEISLIASSIMSKKLAGGSDAFVLDVKFGTGAFMKGFEDAKKLAFLMLRIAQQHGKKAVAVLSNMDQPLGKAVGNSLEVIEAIETLKGNGPEDLKELSLTLGALMLELAGVADFEEGKKILQEKLETGEALDKFRLLVKAQGGNERVVDDPWRVLPVAEQVVEFSAAREGFVSKIDAEKVGIASMMLGAGRKKKEDRIDHSVGIIVEKKLGDSVKKGEAIARLFVSDRSDVESALKLLKEAYVISDSPSEPPRVVEEVIK	not soluble
